{"source": "patent US20220332804A1", "about": "(CSL INNOVATION, published 2022)", "binders": {"B1": {"name": "RF16-242 (antibody, human IgG4 S228P, lambda, V domains shown)", "VH": "EVQLLQSGAEVKKPGESLKISCKGSGYSFTSYWIGWVRQMPGKGLEWMGIIYPGDSDTRYSPSFQGQVTISADKSISTAYLQWSSLKASDTAMYYCARRGHYGDYFDYWGQGTLVTVSS", "VL": "SYELTQPPSVSVSPGQTARITCSGDALPKKYAYWYHQKSGQAPVLVIYEDRRRPSEIPERFSGSSSGTMATLTITGAQVEDEGVYFCYSRDRAGNQRVFGGGTQLTVLG", "notes": "pH-dependent anti-C2 antibody from a phage display library"}}, "experiment_in_all_cases": "SPR, KD relative to WT C2;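 further: biacore SPR at 37 °C, anti-C2 mAbs captured on anti-human IgG chips with alanine or serine point mutants of C2 as analyte, KD from 1:1 fit compared with wild-type C2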", "key": {"[1]": {"biological_target": "T1, human complement C2 (wild type) (human, UniProt P06681 21-752)", "T1 construct": "Full-length human C2 (NP_000054) with C-terminal 8x His tag, secreted from Expi293F cells and purified from the supernatant; also called WT; huC2", "T1 sequence": "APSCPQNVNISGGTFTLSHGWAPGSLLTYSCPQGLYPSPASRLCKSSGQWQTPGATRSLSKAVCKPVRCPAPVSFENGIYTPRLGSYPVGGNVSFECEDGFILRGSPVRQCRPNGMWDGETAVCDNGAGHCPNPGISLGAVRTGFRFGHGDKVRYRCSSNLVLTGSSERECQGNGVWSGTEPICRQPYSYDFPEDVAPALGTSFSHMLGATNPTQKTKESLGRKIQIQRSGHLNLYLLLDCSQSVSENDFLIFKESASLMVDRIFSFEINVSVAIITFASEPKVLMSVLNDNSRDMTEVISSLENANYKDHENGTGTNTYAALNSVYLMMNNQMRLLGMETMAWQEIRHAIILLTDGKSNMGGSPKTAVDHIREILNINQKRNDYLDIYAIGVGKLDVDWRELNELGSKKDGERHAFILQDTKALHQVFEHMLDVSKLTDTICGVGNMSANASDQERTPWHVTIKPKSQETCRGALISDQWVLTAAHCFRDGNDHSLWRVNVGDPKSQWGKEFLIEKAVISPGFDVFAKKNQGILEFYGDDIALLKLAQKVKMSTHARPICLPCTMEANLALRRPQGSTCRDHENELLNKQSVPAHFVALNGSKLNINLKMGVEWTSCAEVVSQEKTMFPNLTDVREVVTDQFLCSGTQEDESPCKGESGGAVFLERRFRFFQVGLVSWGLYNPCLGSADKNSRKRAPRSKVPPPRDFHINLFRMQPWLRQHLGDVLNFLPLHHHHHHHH"}, "human C2 D454A": {"biological_target": "T2, human C2 D454A (human, UniProt P06681 21-752)", "T2 sequence": "T1 sequence with D434A"}, "human C2 L453A": {"biological_target": "T3, human C2 L453A (human, UniProt P06681 21-752)", "T3 sequence": "T1 sequence with L433A"}}, "note": "Where a chain is given by its changes, count along the chain named."}
{"binder": "B1", "values": [{"measurement": "Fold diff", "setting": "[1]", "result": 1, "unit": "fold"}, {"measurement": "Fold diff", "setting": "human C2 D454A", "result": 5, "unit": "fold"}, {"measurement": "Fold diff", "setting": "human C2 L453A", "result": 1, "unit": "fold"}]}
